Data on 1 substance can be found in paper PMC8557876.

A short description of the data set: immunofluorescence colocalisation with ER marker PDI (PCC). The conditions noted are these: glycan lost; control: wild-type hACE2, DMSO.

With “human ACE2 (hACE2): N90Q/N322Q/N546Q/N53Q/N103Q”, the localisation_or_trafficking result is given as “changes”.
